Changes are numbered by the printed parent chain. In names and notes the source's numbering stands.
Assays:
HIV-2 C3 chimera Env = HIV-2 C3 chimera Env (HIV-2 (HIV-1 MPER) chimera); experiment: cell-based or functional assay
HIV-2 C4 chimera Env = HIV-2 C4 chimera Env (HIV-2 (HIV-1 MPER) chimera); experiment: cell-based or functional assay
[1] = target: HIV-2 Env (parental virus of the chimeras) (HIV-2); experiment: cell-based or functional assay
HIV-1 Du156.12 Env [2] = target: HIV-1 Du156.12 Env (HIV-1 Du156.12); experiment: cell-based or functional assay
HIV-2 C1 chimera Env = HIV-2 C1 chimera Env (HIV-2 (HIV-1 MPER) chimera); experiment: cell-based or functional assay
HIV-1 HxB2 Env [3] = target: T1, HIV-1 HxB2 Env (HIV-1 HxB2, UniProt P04578 33-856); experiment: cell-based or functional assay
HIV-1 Du156.12 Env [4] = target: HIV-1 Du156.12 Env (HIV-1 Du156.12); experiment: cell-based or functional assay; remark: listed apart in the source
HIV-1 HxB2 Env [5] = target: T1, HIV-1 HxB2 Env; experiment: BN-PAGE mobility shift of HxB2 Env with Fab, relative shift
HIV-1 HxB2 Env [6] = target: T1, HIV-1 HxB2 Env; experiment: cell-based or functional assay; remark: listed apart in the source
HIV-1 Du156.12 Env [7] = target: HIV-1 Du156.12 Env (HIV-1 Du156.12); experiment: cell-based or functional assay; remark: listed apart in the source

B1: PGZL1 (antibody, V domains shown)
VH: EVQLVQSGGEVKRPGSSVTVSCKATGGTFSTLAFNWVRQAPGQGPEWMGGIVPLFSIVNYGQKFQGRLTIRADKSTTTVFLDLSGLTSADTATYYCAREGEGWFGKPLRAFEFWGQGTVITVSS
VL: DVVMTQSPGTLSLSPGERATLSCRASQSVSGGALAWYQQKPGQAPRLLIYDTSSRPTGVPGRFSGSGSGTDFSLTISRLEPEDFAVYYCQQYGTSQSTFGQGTRLEIK
In the case of B1, the “IC50 (µg/ml), neutralization of chimeric virus” value (from here on “IC50 (µg/ml) … of chimeric virus”) (HIV-2 C3 chimera Env) is reported as greater than 10 µg/mL, the “IC50 (µg/ml) … of chimeric virus” value (HIV-2 C4 chimera Env) is reported as 2.38 µg/mL and the “IC50 (µg/ml), neutralization of HIV-2” value [1] is reported as greater than 10 µg/mL. The “IC50 (µg/ml), neutralization of HIV-1 Du156.12” value (HIV-1 Du156.12 Env [2]) was 0.623 µg/mL and the “IC50 (µg/ml) … of chimeric virus” value (HIV-2 C1 chimera Env) was 0.98 µg/mL.

B2: H4K3_SFS28EPE (antibody, V domains shown)
VH: KVQLVQSGAELKKPWSSVRVSCKASGGEPESYAFNWVRQAPGQRLEWLGGIVPLVSSTNYAQRFRGRVTISADRSTSTVYLEMTGLTSADTAVYFCAREGEGWFGRPLRAFEFWGQGTLVTVST
VL: EIVLTQSPGTFALSPGERATLSCRASQSVSGGALAWYQQKAGQAPRLLIYDTSGRATGVPGRFSGSGSETDFSLTISRLEPEDFAVYYCQQYGTSQSTFGQGTRLETR
With B2 the “Fold Increase (neutralization IC50 over H4K3), HxB2” value (shortened to “Fold Increase … HxB2”) (HIV-1 HxB2 Env [3]) was 16.4 fold, the “IC50, neutralization of HxB2 pseudovirus” value (HIV-1 HxB2 Env [3]) was 1.62 µg/mL and the “Fold Increase (neutralization IC50 over H4K3), Du156.12” value (“Fold Increase … Du156.12” below) (HIV-1 Du156.12 Env [4]) was 26.3 fold. For the same binder, the “IC50, neutralization of Du156.12 pseudovirus” value (from here on “IC50 … of Du156.12 pseudovirus”) (HIV-1 Du156.12 Env [4]) was 2.89 µg/mL.

B3: H4K3_5M (antibody, V domains shown)
VH: B2 VH with R74P, S75E
VL: B2 VL
B3 was tested, and the “Fold Increase … HxB2” value (HIV-1 HxB2 Env [3]) was 37.7 fold, the “IC50, neutralization of HxB2 pseudovirus” value (HIV-1 HxB2 Env [3]) was 3.72 µg/mL and the “Fold Increase … Du156.12” value (HIV-1 Du156.12 Env [4]) was 84.5 fold. The “IC50 … of Du156.12 pseudovirus” value (HIV-1 Du156.12 Env [4]) was 9.31 µg/mL.

B4: H4K3_RS73PE (antibody, V domains shown)
VH: B2 VH with E28S, P29F, E30S, R74P, S75E
VL: B2 VL
In the case of B4, the “Fold Increase … HxB2” value (HIV-1 HxB2 Env [3]) is reported as 3 fold, the “IC50, neutralization of HxB2 pseudovirus” value (HIV-1 HxB2 Env [3]) is reported as 0.299 µg/mL and the “Fold Increase … Du156.12” value (HIV-1 Du156.12 Env [4]) is reported as 7.4 fold. The “IC50 … of Du156.12 pseudovirus” value (HIV-1 Du156.12 Env [4]) was 0.814 µg/mL.

B5: PGZL1.H4K3 (antibody, V domains shown)
VH: B2 VH with E28S, P29F, E30S
VL: B2 VL with D51G
With B5 the “IC50 (µg/ml) … of chimeric virus” value (HIV-2 C3 chimera Env) was greater than 10 µg/mL, the “IC50 (µg/ml) … of chimeric virus” value (HIV-2 C4 chimera Env) was 1.17 µg/mL and the “IC50 (µg/ml), neutralization of HIV-2” value [1] was greater than 10 µg/mL. For the same binder, the “IC50 (µg/ml), neutralization of HIV-1 Du156.12” value (HIV-1 Du156.12 Env [2]) was 0.27 µg/mL, the “IC50, neutralization of HxB2 pseudovirus” value (HIV-1 HxB2 Env [3]) was 0.099 µg/mL and the “IC50 … of Du156.12 pseudovirus” value (HIV-1 Du156.12 Env [4]) was 0.11 µg/mL.

B6: PGZL1 Fab (Fab, V domains shown)
VH: B1 VH
VL: B1 VL
notes: also called Fab PGZL1
B6: binds (HIV-1 HxB2 Env [5]).

B7: PGZL1_F100A (antibody, V domains shown)
VH: B1 VH with E1Q, F104A
VL: B1 VL
For B7, the “decrease in neutralization against the parent antibody” value (“decrease in neutralization” below) (HIV-1 HxB2 Env [6]) was greater than 10 fold and the “decrease in neutralization” value (HIV-1 Du156.12 Env [7]) was greater than 10 fold.

B8: PGZL1_W99A (antibody, V domains shown)
VH: B1 VH with E1Q, W103A
VL: B1 VL
In the case of B8, the “decrease in neutralization” value (HIV-1 HxB2 Env [6]) is reported as greater than 10 fold and the “decrease in neutralization” value (HIV-1 Du156.12 Env [7]) is reported as greater than 10 fold.

B9: PGZL1_gVmDmJ F100A (antibody, V domains shown)
V domain 1: QVQLVQSGAEVKKPGSSVKVSCKASGGTFSSYAISWVRQAPGQGLEWMGGIIPIFGTANYAQKFQGRVTITADKSTSTAYMELSSLRSEDTAVYYCAREGEGWAGKPLRAFEFWGQGTVITVSS
V domain 2: not shown
For B9, the “decrease in neutralization” value (HIV-1 HxB2 Env [6]) was greater than 10 fold and the “decrease in neutralization” value (HIV-1 Du156.12 Env [7]) was greater than 10 fold.

B10: PGZL1_gVmDmJ_W99A (antibody, V domains shown)
V domain 1: B9 V domain 1 with W103A, A104F
V domain 2: not shown
B10 was tested, and the “decrease in neutralization” value (HIV-1 HxB2 Env [6]) was greater than 10 fold and the “decrease in neutralization” value (HIV-1 Du156.12 Env [7]) was greater than 10 fold.

B11: PGZL1_gVgDgJ Fab (Fab, V domains shown)
VH: B9 V domain 1 with A104F, K106E, E112D, F113V
VL: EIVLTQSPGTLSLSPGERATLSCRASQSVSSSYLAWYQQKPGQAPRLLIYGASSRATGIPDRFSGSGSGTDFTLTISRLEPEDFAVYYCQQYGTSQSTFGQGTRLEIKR
B11: binds (HIV-1 HxB2 Env [5]).
